Experimental findings from patent publication US20250320284A1 (AC IMMUNE, published 2025) are described below.

Test [1] deals with T1, human ASC (apoptosis associated speck-like protein containing a caspase-recruitment domain) (human, UniProt Q9ULZ3 1-195). The test can be described thus: cell-based or functional assay.
Test [2] deals with T2, mouse ASC (mouse, UniProt Q9EPB4 1-193).
T2 construct: recombinant mASC in ELISA and SPR; endogenous ASC of J774.A1 cells in Western blot and immunofluorescence; also called mASC
T2 sequence: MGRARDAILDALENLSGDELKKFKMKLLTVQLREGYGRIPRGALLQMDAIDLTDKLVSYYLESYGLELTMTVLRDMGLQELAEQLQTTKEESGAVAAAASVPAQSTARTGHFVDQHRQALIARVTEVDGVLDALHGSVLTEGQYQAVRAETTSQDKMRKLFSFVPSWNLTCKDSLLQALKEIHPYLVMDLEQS
The test can be described thus: SPR affinity mode, steady-state fit, apparent KD; SPR affinity mode, mAb captured, mASC in solution; steady-state fit, apparent KD.

For test [3], the target named is T3, CARD domain of human ASC (human, UniProt Q9ULZ3 107-195).
T3 construct: biotinylated in BLI; also called hCARD; human CARD
T3 sequence: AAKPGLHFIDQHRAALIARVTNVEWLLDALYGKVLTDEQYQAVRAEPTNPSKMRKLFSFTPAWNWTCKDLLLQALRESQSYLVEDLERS
In words: BLI binning on CARD, competitor 2504F3D9-Ab1.

Test [4] has as its target T3, CARD domain of human ASC. In words: BLI binning on CARD, competitor 18F4C12-Ab1.
Test [5] addresses T2, mouse ASC. The test can be described thus: ELISA, coated mASC; ELISA on mASC protein.
In test [6] the target is T1, human ASC (apoptosis associated …). The test can be described thus: cell-based or functional assay. The source holds these as a separate data set.
The target is the same in test [7]. In words: SPR affinity mode, mAb captured.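 Further: Single-cycle SPR kinetics with mAbs captured on goat anti-mouse antibody, double-referenced against blank flow cell and buffer cycle, fitted by a 1:1 kinetic model.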
In test [8] the target is T3, CARD domain of human ASC. In words: BLI binning on CARD, competitor 2622E12F11-Ab1.
Test [9] addresses T4, PYD domain of human ASC (human, UniProt Q9ULZ3 1-91, limits assumed).
T4 construct: biotinylated in BLI; His/MBP-tagged in the alanine ELISA; also called hPYD; human PYD
In words: ELISA, coated hPYD.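 Further: monoclonal antibody binding to plate-coated human ASC PYD measured by ELISA, with a phosphatase substrate absorbance read-out and EC50 from a variable slope curve fit.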 For orientation: In an ELISA, binding on a coated surface is turned into a signal by an enzyme label.

Test [10] addresses T3, CARD domain of human ASC. In words: ELISA, coated hCARD.
The target in test [11] is T1, human ASC (apoptosis associated …). The test can be described thus: ELISA, coated hASC.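 Further: antibody binding to plate-coated recombinant human ASC, read as phosphatase substrate absorbance, EC50 from four-parameter variable-slope fit.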
For test [12], the target named is T3, CARD domain of human ASC. The test can be described thus: BLI binning on CARD, competitor 2629E8D1-Ab1.
In test [13] the target is T3, CARD domain of human ASC. The test can be described thus: BLI binning on CARD, competitor 32B6C7-Ab1.
For test [14], the target named is T3, CARD domain of human ASC. The test can be described thus: BLI binning on CARD, competitor 2609F4A9-Ab1.
The target in test [15] is T2, mouse ASC. The test can be described thus: cell-based or functional assay.
Test [16] deals with T2, mouse ASC. In words: cell-based or functional assay. This is another data set of the same source.
Test [17] has as its target T4, PYD domain of human ASC. The test can be described thus: BLI binning on PYD, competitor 23E5F7-AB2.
For test [18], the target named is T4, PYD domain of human ASC. The test can be described thus: BLI binning on PYD, competitor 2610H7D3-AB1.
Test [19] addresses T4, PYD domain of human ASC. The test can be described thus: BLI binning on PYD, competitor 2626B9D3-AB1.
For test [20], the target named is T4, PYD domain of human ASC. The test can be described thus: BLI binning on PYD, competitor 26A1G2-AB1.
Test [21] deals with T4, PYD domain of human ASC. In words: BLI binning on PYD, competitor 31F10C5-AB1.
For test [22], the target named is T2, mouse ASC. In words: SPR affinity mode, mAb captured.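 Further: Single-cycle SPR kinetics with mAbs captured on goat anti-mouse antibody, double-referenced against blank flow cell and buffer cycle, fitted by a 1:1 kinetic model.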
The target of test [23] is T4, PYD domain of human ASC. The test can be described thus: BLI binning on PYD, competitor 416E6G4-AB1.
The target of test [24] is T4, PYD domain of human ASC. In words: BLI binning on PYD, competitor 401H9B7-AB1.
Test [25] addresses T4, PYD domain of human ASC. In words: BLI binning on PYD, competitor 2617C3A8-AB1.
Test [26] deals with T2, mouse ASC. The test can be described thus: ELISA, coated mASC.
The target in test [27] is T4, PYD domain of human ASC. In words: BLI binning on PYD, competitor 22D3A6-AB1.
The target of test [28] is T3, CARD domain of human ASC. The test can be described thus: sandwich ELISA on MBP-tagged protein captured by anti-MBP antibody, signal as % of hPYD-WT.

Where a chain is given by its changes, count along the chain named.

T4 sequence (Q9ULZ3 1-91 limits assumed): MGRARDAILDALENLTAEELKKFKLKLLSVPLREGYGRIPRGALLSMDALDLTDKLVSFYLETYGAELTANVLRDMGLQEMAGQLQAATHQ

B1: ACI-8016-2622E12F11-AB1 (antibody, V domains shown)
VH: RVQLQQAGAELVKPGASVKVSCKASGNTFNNYWIYWVKQRPGQGLEWIGRIHPSDSGTNYNQKFEGKATLTVDKSSGTAYMQLSSLTAEDSAVYYCALLSLYAMDSWGHGTSVTVSS
VL: DIVLTQSPASLAVSLGQRATISCRASKSVSSFGYNYIHWYLQKPGQPPKLLIYLASDLESGVPARFSGSGSGTGFTLNIHPVEEEDAATYYCQHSREFPWTFGGGTKLEIK
For orientation: EC50 means the midpoint of the concentration-response curve. A high value points to weaker potency. For orientation: koff means a measure of how fast the partners let go of each other. By kon is commonly meant the rate constant with which the complex forms. Higher therefore signals faster complex formation. As for B1, the “Human ASC polymerization assay, IC50” value in test [1] was found to be 19.4 nM. Besides, the Kd in the test with mouse ASC [2] came to 176 nM; in test [7], 3.66 nM. Also, the normalized binding response was -2% with CARD domain of human ASC [3]; 18% with CARD domain of human ASC [4]; 0% with CARD domain of human ASC [8]; 87% with CARD domain of human ASC [12]; 91% in the test with CARD domain of human ASC [13]; 74% with CARD domain of human ASC [14]. Further, the values for the EC50 (with mouse ASC [5]; with CARD domain of human ASC [10]; in test [11]) were 0.16 nM, 0.12 nM and 0.11 nM, respectively. Further, in test [6], the “IL-1β release, human monocytic cell line, IC50” value (“IL-1β release” below) was 30.8 nM. Besides, the koff in test [7] was determined as 0.000786 s⁻¹. The kon in test [7] stood at 235000 M⁻¹ s⁻¹. Besides, the binding result in the test with PYD domain of human ASC [9] is recorded as “no binding”. For the same molecule, in the test with mouse ASC [15], the “% IL-1β inhibition, mouse primary microglia, 420 nM mAb” value (shortened to “% IL-1β inhibition”) was found to be 95.9%.

B2: ACI-8016-26A1G2-AB1 (antibody, V domains shown)
VH: QVQLQQSGAELARPGASVKLSCKASGYNFTTYGINWVKQRTGQGLEWIGKIYPRSGNTHNNENFKGKATLTADTSSSTAYMDLRSLTSEDSAVYFCARSPYAFYSSSYWYFDVWGTGTTVTVSS
VL: DIKMTQSPSSMYASLGERVTITCKASQDIKSYLSWYQQKPWKSPKTLIYYATSLADGVPSRFSGSGSGQDYSLTISSLESDDTATYYCLQHGESPFTFGSGTKLEIK
notes: also called 936.26A1G2; ACI-8016-26A1G2-AB1_hmG2c
B2: the “Human ASC polymerization assay, IC50” value in test [1] was determined as 4.9 nM. In the test with mouse ASC [16], the “Mouse ASC polymerization assay, IC50” value is 24.8 nM. Further, the normalized binding response in the test with PYD domain of human ASC [17] was found to be 18%; in the test with PYD domain of human ASC [18], 22%; with PYD domain of human ASC [19], 33%; with PYD domain of human ASC [20] it was 3%; with PYD domain of human ASC [21], 19%; with PYD domain of human ASC [23], 14%. Besides, the normalized binding response with PYD domain of human ASC [24] amounted to 63%; with PYD domain of human ASC [25], 23%; in the test with PYD domain of human ASC [27], 23%. In addition, the Kd in [7] amounted to 1.87 nM; with mouse ASC [22] it was 3.81 nM. For the same molecule, the results for the koff (in test [7]; with mouse ASC [22]) were 8.05e-05 s⁻¹ and 0.000101 s⁻¹, respectively. Also, the association rate constant (kon) in test [7] worked out at 42000 M⁻¹ s⁻¹; in the test with mouse ASC [22] it was 27600 M⁻¹ s⁻¹. The half-maximal effective concentration (EC50) was 0.12 nM with PYD domain of human ASC [9], 0.13 nM in test [11] and 0.15 nM in the test with mouse ASC [26]. Further, the binding result in the test with CARD domain of human ASC [28] is given as “no binding”. In addition, in the test with mouse ASC [15], the “% IL-1β inhibition” value was 52.1%.

B3: ACI-8016-2609F4A9-AB1 (antibody, V domains shown)
VH: QVQLQQSDAELVKPGASVKISCKVSGYALTDHSIHWMKQRPEQGLAWIGYMYPGDGSANYNDKFRGKATLTADISSSTAYMHLNSLTSEDSAVYFCTRPYSFGSSYDYFGYWGQGTTLTVSS
VL: DIQMNQSPSSLSASLGDTITITCHASQNINVWLNWYQQKPGNIPKLLIYKASKLHTGVSSSFSGSGSGTGFTLTISSLQPEDIGTYYCQQGQSYPYTFGGGTKLEIK
B3: the “Human ASC polymerization assay, IC50” value in test [1] was 32.8 nM. Moreover, the results for the Kd (in the test with mouse ASC [2]; in test [7]) were 168 nM and 24.9 nM, respectively. Also, the normalized binding response amounted to 0% in the test with CARD domain of human ASC [3]; 96% with CARD domain of human ASC [4]; 103% with CARD domain of human ASC [8]; 0% with CARD domain of human ASC [12]; 7% with CARD domain of human ASC [13]; 0% in the test with CARD domain of human ASC [14]. Besides, the results for the EC50 (with mouse ASC [5]; with CARD domain of human ASC [10]; in [11]) were 0.3 nM, 0.11 nM and 0.12 nM, respectively. In addition, the “IL-1β release” value in test [6] was determined as 16.2 nM. This molecule registered a koff in test [7] of 0.00783 s⁻¹. In test [7], this molecule came in with a kon of 297000 M⁻¹ s⁻¹. Besides, in the test with PYD domain of human ASC [9], the binding result was “no binding”. Moreover, the “% IL-1β inhibition” value with mouse ASC [15] came to 82.3%.

B4: ACI-8016-2629E8D1-AB1 (antibody, V domains shown)
VH: QVQLQQSDAELVKPGGSVKISCKVSGYTFTDHTIHWMKQRPEQGLEWIGNIYPGDGSTMYNEKFKGKATLTADKSSSTAYMHLNSLTSEDSAVYFCARPYYFGSASYYFGYWGQGTTLTVSS
VL: B3 VL with K53N, S59P, S61R, T69I, G84A, Y96L
notes: also called ACI-8016-2629E8D1-AB1_rmG2a_01
For the molecule B4, the “Human ASC polymerization assay, IC50” value in test [1] was determined as 14.1 nM. Besides, the Kd stood at 134 nM with mouse ASC [2] and 1.38 nM in [7]. For the same molecule, the normalized binding response in the test with CARD domain of human ASC [3] is -2%; with CARD domain of human ASC [4], 95%; with CARD domain of human ASC [8], 102%; with CARD domain of human ASC [12], 0%; with CARD domain of human ASC [13], 3%; with CARD domain of human ASC [14], -2%. Moreover, the EC50 came out at 0.22 nM with mouse ASC [5], 0.12 nM in the test with CARD domain of human ASC [10] and 0.11 nM in [11]. In addition, the “IL-1β release” value in test [6] is 14.9 nM. In test [7], this molecule registered a koff of 0.000182 s⁻¹. The molecule further returned a kon in [7] of 140000 M⁻¹ s⁻¹. In addition, in the test with PYD domain of human ASC [9], the binding result is on record as “no binding”. In the test with mouse ASC [15], the “% IL-1β inhibition” value is 88.8%.
